{"source": "paper PMC8789855", "about": "“Ion currents through Kir potassium channels are gated by anionic lipids” (Nature Communications, 2022)", "key": {"KirBac3.1-SCS [1]": {"biological_target": "T1, KirBac3.1-SCS (Paramagnetospirillum magnetotacticum, UniProt D9N164, C71S/C262S)", "T1 construct": "prokaryotic Kir channel, native Cys119 kept as only cysteine, expressed in E. coli C41(DE3), Co2+ IMAC, homotetramer, reconstituted in liposomes or bilayers; PDB 6O9U is the native parent, 7N9L/7N9K are SCS and SCS-L124M", "T1 sequence (D9N164 1-295 C71S/C262S)": "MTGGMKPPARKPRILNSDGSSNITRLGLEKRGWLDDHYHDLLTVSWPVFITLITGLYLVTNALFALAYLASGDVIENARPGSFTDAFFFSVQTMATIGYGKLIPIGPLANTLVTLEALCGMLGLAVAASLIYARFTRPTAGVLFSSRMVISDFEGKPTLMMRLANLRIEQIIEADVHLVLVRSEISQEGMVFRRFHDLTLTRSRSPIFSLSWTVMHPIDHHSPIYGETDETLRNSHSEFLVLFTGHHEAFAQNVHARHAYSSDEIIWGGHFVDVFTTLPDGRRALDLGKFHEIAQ", "test": "ACMA liposome K+ flux assay; single-channel recording; PEGylation gel shift", "type": "biochemical", "details": "covalent, at Cys119 near fenestration; activator; pH 8.5 (flux assay)"}, "KirBac3.1-SCS [2]": {"biological_target": "T1, KirBac3.1-SCS", "test": "single-channel recording in planar lipid bilayer", "type": "biochemical", "details": "covalent, at Cys119 near fenestration; pH 7.4, 23 C, -80 mV"}, "[3]": {"biological_target": "the molecule itself", "test": "native MS; 200 mM ammonium acetate pH 8.0, 0.5% C8E4 (2x CMC); modified Q-Exactive"}, "[4]": {"biological_target": "the molecule itself", "test": "crystal structure; sitting drops, vapour diffusion, 4 mg/ml protein; PEG 4,000, PEG 8000, PEG 400, 90 mM HEPES pH 7.5, 1 mM TCEP and 50 mM EDTA or 10 mM CaCl2"}, "[5]": {"biological_target": "the molecule itself", "test": "SEC; Superdex 200 10/30 in 20 mM TRIS pH 8.0, 150 mM KCl, 0.02% (w/v) DDM; fractions of the tetramer collected"}}}
{"molecule": "CCCCCCCCCCSS(C)(=O)=O", "note": "[decyl-MTS]", "values": [{"measurement": "ACMA liposome K+ flux assay; single-channel recording; PEGylation gel shift", "setting": "KirBac3.1-SCS [1]", "result": "bound decyl chains (C119-decyl) increased activity relative to wild type"}]}
{"molecule": "CCCCCCCCSS(C)(=O)=O", "note": "[octyl MTS-reagent (C119-octyl)]", "values": [{"measurement": "single-channel recording in planar lipid bilayer", "setting": "KirBac3.1-SCS [2]", "result": "channels derivatised with one of three MTS-reagents to titrate the effect of chain length"}]}
{"molecule": "KirBac3.1 (wild type prokaryotic Kir channel) (natural protein, KirBac3.1, prokaryotic inward rectifier K+ channel; Co-purifies with phospholipids (PG, PE); also called native KirBac3.1; wild type KirBac3.1; source: E. coli C41(DE3), purified (Co2+ IMAC, Superdex 200 SEC, in DDM)) MTGGMKPPARKPRILNSDGSSNITRLGLEKRGWLDDHYHDLLTVSWPVFITLITGLYLVTNALFALAYLACGDVIENARPGSFTDAFFFSVQTMATIGYGKLIPIGPLANTLVTLEALCGMLGLAVAASLIYARFTRPTAGVLFSSRMVISDFEGKPTLMMRLANLRIEQIIEADVHLVLVRSEISQEGMVFRRFHDLTLTRSRSPIFSLSWTVMHPIDHHSPIYGETDETLRNSHSEFLVLFTGHHEAFAQNVHARHAYSCDEIIWGGHFVDVFTTLPDGRRALDLGKFHEIAQ", "values": [{"measurement": "stoichiometry N", "setting": "[3]", "result": 4}]}
{"molecule": "KirBac3.1 L124M (on the C71S-C262S background) (natural protein, KirBac3.1 with L124M on the SCS (C71S-C262S) background; Mutant cDNA bought from Genscript; also called Leu124M; source: E. coli C41(DE3), purified (Co2+ IMAC, Superdex 200 SEC, in DDM)) MTGGMKPPARKPRILNSDGSSNITRLGLEKRGWLDDHYHDLLTVSWPVFITLITGLYLVTNALFALAYLASGDVIENARPGSFTDAFFFSVQTMATIGYGKLIPIGPLANTLVTLEALCGMLGMAVAASLIYARFTRPTAGVLFSSRMVISDFEGKPTLMMRLANLRIEQIIEADVHLVLVRSEISQEGMVFRRFHDLTLTRSRSPIFSLSWTVMHPIDHHSPIYGETDETLRNSHSEFLVLFTGHHEAFAQNVHARHAYSSDEIIWGGHFVDVFTTLPDGRRALDLGKFHEIAQ", "values": [{"measurement": "binding result", "setting": "[4]", "result": "binds"}]}
{"molecule": "KirBac3.1-SCS derivatised with decyl-MTS at Cys119 (natural protein, decyl chain from decyl-methylthiosulfonate on Cys119, KirBac3.1 on the otherwise cysteine-less SCS background (C71S-C262S), native Cys119 kept and derivatised; also called C119-decyl; source: E. coli C41(DE3), purified, reacted with decyl-MTS, re-purified by SEC) MTGGMKPPARKPRILNSDGSSNITRLGLEKRGWLDDHYHDLLTVSWPVFITLITGLYLVTNALFALAYLASGDVIENARPGSFTDAFFFSVQTMATIGYGKLIPIGPLANTLVTLEALCGMLGLAVAASLIYARFTRPTAGVLFSSRMVISDFEGKPTLMMRLANLRIEQIIEADVHLVLVRSEISQEGMVFRRFHDLTLTRSRSPIFSLSWTVMHPIDHHSPIYGETDETLRNSHSEFLVLFTGHHEAFAQNVHARHAYSSDEIIWGGHFVDVFTTLPDGRRALDLGKFHEIAQ", "values": [{"measurement": "binding result", "setting": "[5]", "result": "binds"}]}
{"molecule": "KirBac3.1-SCS derivatised with hexyl-MTS at Cys119 (natural protein, hexyl chain from hexyl-methylthiosulfonate on Cys119, KirBac3.1 on the otherwise cysteine-less SCS background (C71S-C262S), native Cys119 kept and derivatised; also called C119-hexyl; source: E. coli C41(DE3), purified, reacted with hexyl-MTS, re-purified by SEC) MTGGMKPPARKPRILNSDGSSNITRLGLEKRGWLDDHYHDLLTVSWPVFITLITGLYLVTNALFALAYLASGDVIENARPGSFTDAFFFSVQTMATIGYGKLIPIGPLANTLVTLEALCGMLGLAVAASLIYARFTRPTAGVLFSSRMVISDFEGKPTLMMRLANLRIEQIIEADVHLVLVRSEISQEGMVFRRFHDLTLTRSRSPIFSLSWTVMHPIDHHSPIYGETDETLRNSHSEFLVLFTGHHEAFAQNVHARHAYSSDEIIWGGHFVDVFTTLPDGRRALDLGKFHEIAQ", "values": [{"measurement": "binding result", "setting": "[5]", "result": "binds"}]}
{"molecule": "KirBac3.1-SCS (C71S-C262S background) (natural protein, KirBac3.1 with two native cysteines mutated to serine; Mutant cDNA bought from Genscript; source: E. coli C41(DE3), purified (Co2+ IMAC, Superdex 200 SEC, in DDM)) MTGGMKPPARKPRILNSDGSSNITRLGLEKRGWLDDHYHDLLTVSWPVFITLITGLYLVTNALFALAYLASGDVIENARPGSFTDAFFFSVQTMATIGYGKLIPIGPLANTLVTLEALCGMLGLAVAASLIYARFTRPTAGVLFSSRMVISDFEGKPTLMMRLANLRIEQIIEADVHLVLVRSEISQEGMVFRRFHDLTLTRSRSPIFSLSWTVMHPIDHHSPIYGETDETLRNSHSEFLVLFTGHHEAFAQNVHARHAYSSDEIIWGGHFVDVFTTLPDGRRALDLGKFHEIAQ", "values": [{"measurement": "binding result", "setting": "[4]", "result": "binds"}]}
